Test results reported in patent US20210205413A1 (Nektar Therapeutics, priority 2018, published 2021).
Entries after “also recorded” stand apart in the source; their conditions may differ.

Legend:
[1] = Single dose pharmacokinetics in rats (IV and SC, LS-2016-2033); assay type: in vivo, Sprague-Dawley Rats
[2] = Phase I single ascending dose study in healthy volunteers: safety and tolerability; assay type: in vivo, human; conditions: single SC doses
Experimental: A double-blind, randomized, placebo-controlled study is conducted to evaluate the safety, tolerability, pharmacokinetics, and pharmacodynamics of single ascending low sub-cutaneous doses of an RUR20kD-IL-2 composition (RUR20kD-IL-2) in healthy volunteers. […] Twelve subjects are randomized to each dose cohort, nine of whom received a single subcutaneous dose of RUR20kD-IL-2 while three received placebo. […] The drug product is supplied in single-use glass vials and stored at 2-8° C. […] Placebo is a commercially available 0.9% sodium chloride solution. A starting dose of 0.3 μg/kg is chosen using the minimally anticipated biological effect level (MABEL) approach and is supported by the no observed adverse effect level (NOAEL) in the most sensitive species from nonclinical toxicology studies.
The primary objective of the study is to evaluate the safety and tolerability of RUR20kD-IL-2 administered as a single subcutaneous dose. […] In a first phase of the study, immune markers are tested pre-dose up to 20 hours post-dose. Specifically, Tregs, CD4^+-T cells, CD8^+-T cells, natural killer (NK) cells, cytokines, soluble CD25, and RNA are tested in RUR20kD-IL-2- and placebo-receiving cohorts. In subsequent phases, the same immune markers are also tested at 4-, 5-, 6-, 7-, 8-, 10-, 12-, 15-, 18-, 20-, 25-, 30-, 40, and 50-days post-dose.

[3] = Sprague-Dawley rats, single IV 0.01 mg/kg, plasma, mean ± SE
[4] = Sprague-Dawley rats, single IV 0.1 mg/kg, plasma, mean ± SE
[5] = Sprague-Dawley rats, single IV 1 mg/kg, plasma, mean ± SE
[6] = Sprague-Dawley rats, single SC 0.01 mg/kg, plasma, mean ± SE
[7] = Sprague-Dawley rats, single SC 0.1 mg/kg, plasma, mean ± SE
[8] = Sprague-Dawley rats, single SC 1 mg/kg, plasma, mean ± SE

Question: With “(1,3-bis(methoxypoly(ethylene glycol)10kDcarbamoyl)-2-propanoxy)-4-butanamide)interleukin-2) [RUR20kD-IL-2]” as the substance, how does the AUCinf [1, 3] read?
Answer: 17800 ± 1000 ng·h/mL

Question: And the AUClast [1, 3]?
Answer: 17800 ± 900 ng·h/mL

Question: What about the CL [1, 3] of the same substance?
Answer: 13.4 ± 0.72 mL/day/kg

Question: What about the Half-life [1, 3] of the same substance?
Answer: 30 ± 3.84 h

Question: What about the MRTinf [1, 3] of the same substance?
Answer: 44.9 ± 5.04 h

Question: And the Vss [1, 3]?
Answer: 0.0251 L/kg

Question: What about the AUCinf [1, 4] of the same substance?
Answer: 120000 ± 8000 ng·h/mL

Question: What about the AUClast [1, 4] of the same substance?
Answer: 120000 ± 8000 ng·h/mL

Question: What about the CL [1, 4] of the same substance?
Answer: 20.2 ± 1.4 mL/day/kg

Question: What about the Half-life [1, 4] of the same substance?
Answer: 40.1 ± 0.24 h

Question: What about the MRTinf [1, 4] of the same substance?
Answer: 52.3 ± 0.96 h

Question: And the Vss [1, 4]?
Answer: 0.0441 ± 0.0035 L/kg

Question: What about the AUCinf [1, 5] of the same substance?
Answer: 877000 ± 39000 ng·h/mL

Question: What about the AUClast [1, 5] of the same substance?
Answer: 870000 ± 35000 ng·h/mL

Question: What about the CL [1, 5] of the same substance?
Answer: 27.4 ± 1.2 mL/day/kg

Question: And the Half-life [1, 5]?
Answer: 37.4 ± 5.28 h

Question: And the MRTinf [1, 5]?
Answer: 45.6 ± 3.84 h

Question: What about the Vss [1, 5] of the same substance?
Answer: 0.0526 L/kg

Question: And the “Absolute Bioavailability” value ([1]; Sprague-Dawley rats, single SC 0.01 mg/kg)?
Answer: 40.2%

Question: What about the AUCinf [1, 6] of the same substance?
Answer: 7160 ± 530 ng·h/mL

Question: What about the AUClast [1, 6] of the same substance?
Answer: 7120 ± 510 ng·h/mL

Question: What about the Cmax [1, 6] of the same substance?
Answer: 95 ± 6 ng/mL

Question: What about the Half-life [1, 6] of the same substance?
Answer: 32.4 ± 1.4 h

Question: And the MRTinf [1, 6]?
Answer: 64.8 ± 1.4 h

Question: And the tmax [1, 6]?
Answer: 31.9 ± 7.92 h

Question: What about the “Absolute Bioavailability” value ([1]; Sprague-Dawley rats, single SC 0.1 mg/kg) of the same substance?
Answer: 29.8%

Question: What about the AUCinf [1, 7] of the same substance?
Answer: 35700 ± 5100 ng·h/mL

Question: And the AUClast [1, 7]?
Answer: 35500 ± 5100 ng·h/mL

Question: And the Cmax [1, 7]?
Answer: 380 ± 40 ng/mL

Question: And the Half-life [1, 7]?
Answer: 46.1 ± 1.9 h

Question: And the MRTinf [1, 7]?
Answer: 82.1 ± 6.72 h

Question: And the tmax [1, 7]?
Answer: 48 ± 0 h

Question: What about the “Absolute Bioavailability” value ([1]; Sprague-Dawley rats, single SC 1 mg/kg) of the same substance?
Answer: 46.0%

Question: And the AUCinf [1, 8]?
Answer: 404000 ± 79000 ng·h/mL

Question: And the AUClast [1, 8]?
Answer: 398000 ± 74000 ng·h/mL

Question: And the Cmax [1, 8]?
Answer: 4860 ± 930 ng/mL

Question: What about the Half-life [1, 8] of the same substance?
Answer: 30.5 ± 7.68 h

Question: What about the MRTinf [1, 8] of the same substance?
Answer: 67.7 ± 3.84 h

Question: And the tmax [1, 8]?
Answer: 55.2 ± 7.92 h

Question: And the “Vss relative to species-specific plasma volume” value ([1]; rats)?
Answer: 1-2 fold

Question: And the Bioavailability ([1]; rats, SC, range over doses)?
Answer: 29.8-46.0%

Question: What about the tmax ([1]; rats, SC, range over doses) of the same substance?
Answer: 24 to 55.2 h

Question: What about the half-lives ([1]; rats, intravenous or subcutaneous dosing, range) of the same substance?
Answer: 1.25 to 2.44 days

Question: What about the “Plasma clearance (CL)” value ([1]; rats, range over doses) of the same substance?
Answer: 13.4 to 27.4 mL/day/kg

Question: What about the adverse events [2] of the same substance?
Answer: primarily limited to mild or moderate (Grade 1 or 2) injection site reactions; also recorded: primarily limited to mild (grade 1) injection site reactions

Question: And the anti-drug antibodies [2]?
Answer: no elicitation of anti-drug antibodies; also recorded: none have been detected

Question: What about the “dose-limiting toxicities, serious adverse events, deaths, clinically significant abnormalities” value [2] of the same substance?
Answer: No dose-limiting toxicities (DLTs), serious adverse events (SAEs), deaths, or clinically significant abnormalities; also recorded: no dose-limiting toxicities, deaths, or adverse events leading to study discontinuation; also recorded: no dose-limiting toxicities, serious adverse events, deaths, or clinically significant abnormalities in vital signs, electrocardiograms, or laboratory test values
